Assay results from IntAct's records for PubMed 10545207.

B1: GTP-binding protein Rit2 (Mus musculus), P70425 (parent)
chain: MEVENEAHCCPGSSSGGSREYKVVMLGAGGVGKSAVTMQFISHQFPDYHDPTIEDAYKTQVRIDNEPAYLDILDTAGQAEFTAMREQYMRGGEGFIICYSVTDRQSFQEAAKFKELIFQVRHTYEIPLVLVGNKIDLEQFRQVSTEEGMNLARDYNCAFFETSAALRFGIDDAFQGLVREIRRKESMLSLVERKLKRKDSLWKKIKASLKKKRENML
partner: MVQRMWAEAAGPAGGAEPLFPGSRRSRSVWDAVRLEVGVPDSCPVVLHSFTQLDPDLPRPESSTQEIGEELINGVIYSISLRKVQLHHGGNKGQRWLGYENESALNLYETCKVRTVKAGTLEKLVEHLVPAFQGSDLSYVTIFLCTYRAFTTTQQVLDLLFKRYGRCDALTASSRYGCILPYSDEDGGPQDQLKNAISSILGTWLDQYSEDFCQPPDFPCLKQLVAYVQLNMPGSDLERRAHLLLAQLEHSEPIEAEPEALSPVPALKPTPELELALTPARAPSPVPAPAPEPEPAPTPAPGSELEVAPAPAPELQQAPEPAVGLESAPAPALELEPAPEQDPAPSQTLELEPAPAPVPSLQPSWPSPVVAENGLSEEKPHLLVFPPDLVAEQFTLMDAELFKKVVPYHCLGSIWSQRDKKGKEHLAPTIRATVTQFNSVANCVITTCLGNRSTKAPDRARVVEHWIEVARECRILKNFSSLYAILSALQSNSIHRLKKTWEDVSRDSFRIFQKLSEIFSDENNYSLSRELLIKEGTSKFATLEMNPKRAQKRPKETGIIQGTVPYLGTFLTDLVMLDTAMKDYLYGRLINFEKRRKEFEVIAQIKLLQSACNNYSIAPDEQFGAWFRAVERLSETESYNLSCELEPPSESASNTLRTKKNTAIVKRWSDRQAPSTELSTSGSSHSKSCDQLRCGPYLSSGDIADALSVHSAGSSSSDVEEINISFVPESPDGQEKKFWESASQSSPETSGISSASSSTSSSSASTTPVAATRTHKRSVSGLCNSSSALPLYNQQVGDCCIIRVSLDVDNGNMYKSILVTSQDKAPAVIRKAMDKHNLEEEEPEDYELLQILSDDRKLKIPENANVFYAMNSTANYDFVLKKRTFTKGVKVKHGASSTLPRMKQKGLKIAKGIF
B2: GTP-binding protein Rit2 (Mus musculus), P70425 (parent)
chain: B1 chain

Variants of: B1
Details: with gnds_human RALGDS

Variant	effect of a mutation on the interaction
S34N	decreasing interaction

Variants of: B2
Details: with rlf_human RLF

Variant	effect of a mutation on the interaction
S34N	decreasing interaction

Variants of: B2
Details: with afad_human AFDN

Variant	effect of a mutation on the interaction
S34N	decreasing interaction
